The experiment deals with T1, CK8 (Homo sapiens, UniProt P05787).
T1 sequence (P05787 1-483): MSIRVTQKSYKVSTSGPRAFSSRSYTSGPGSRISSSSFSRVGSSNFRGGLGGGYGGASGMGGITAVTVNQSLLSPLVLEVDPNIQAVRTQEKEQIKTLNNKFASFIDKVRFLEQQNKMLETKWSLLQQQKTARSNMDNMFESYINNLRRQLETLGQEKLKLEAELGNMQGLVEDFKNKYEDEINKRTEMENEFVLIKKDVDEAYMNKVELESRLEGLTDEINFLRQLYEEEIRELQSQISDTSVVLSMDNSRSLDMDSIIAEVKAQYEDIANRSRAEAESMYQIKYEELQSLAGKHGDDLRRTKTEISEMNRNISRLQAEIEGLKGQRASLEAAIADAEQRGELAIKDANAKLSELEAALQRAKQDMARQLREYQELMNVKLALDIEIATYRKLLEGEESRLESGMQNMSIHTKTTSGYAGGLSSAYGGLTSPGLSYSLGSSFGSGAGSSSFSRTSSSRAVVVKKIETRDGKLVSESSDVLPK
As to the kind of experiment: Immunohistochemistry staining on Colorectal PDX xenograft models. Format: binding. Details: from tissue; host or cells: pancreatic cancer PDX tumour tissue (PAN-001, PAN-003, PAN-004, PAN-035); key: 2+ for strong; 1+ for moderate intensity IHC staining. As to the method:
This example describes methods to investigate on CK8 cellular expression at the cell surface by Immunohistochemistry. The antigen retrieval (AR) was performed following incubation at 95° C. during 30 min in Sodium Citrate (pH6.0). The MAb anti CK8 was incubated 1 hour at room temperature (RT). The secondary antibody as a goat anti human was incubated at RT during 1 hour then with a rabbit polyclonal anti FITC at RT during 30 min.
All of CRC PDX models expressed the HzR022 (D-A10) epitope detected by IHC. Different IHC scores were observed as 2+ for strong or 1+ for moderate intensity IHC staining.

B1: HzR022 (D-A10): humanized anti-CK8 monoclonal antibody D-A10; VL SEQ ID NO: 14, VH SEQ ID NO: 15 (antibody, V domains shown)
VH: EVQLVESGGGLVQPGGSLRLSCAASGFTFSSYWMSWVRQAPGKGLVWVSDINSDGSSTKYADSVKGRFTISRDNAKNTLYLQMNSLRAEDTAVYYCIAHYSGGGFAYWGQGTLVTVSS
VL: DIVMTQAPLSLPVTPGEPASISCRSSKSLLYSNGYNYLYWFLQKPGQSPQLLIYYMSNLASGVPDRFSGSGSGTDFTLKISRVEAEDVGVYYCMQSLEYPFTFGQGTKLEIK
modifications: VHHzD-A10; VLHzD-A10
As for B1, the “HzR022 (D-A10) IHC score” value reads like this: (CRC PDX model CR0004) 2+; (CRC PDX model CR0012) 2+; (CRC PDX model CR0029) 2+; (CRC PDX model CR0126) 2+; (CRC PDX model CR0196) 2+; (CRC PDX model CR0205) 1+. Further, the “HzR022 (D-A10) IHC score” value (CRC PDX model CR0455) is given as 1+; the “HzR022 (D-A10) IHC score” value (CRC PDX model CR1530) is given as 2+; the “HzR022 (D-A10) IHC score” value (CRC PDX model CR3056) was 1+; the “HzR022 (D-A10) IHC score” value (CRC PDX model CR3150) is on record as 1+; the “HzR022 (D-A10) IHC score” value (CRC PDX model CR6254) is reported as 2+.

Source of the values: patent US20230062308A1, “TREATMENT OF CK8 POSITIVE CANCERS IN RELATION WITH K-RAS GENE STATUS” (INTERNATIONAL - DRUG - DEVELOPMENT - BIOTECH, priority 2017, published 2023).
